Tests used:
[1] = target: T1, CI-MPR receptor; test: CI-MPR plate-binding assay in presence of M6P, bound PPT1 by activity assay
T1 construct: also called IGF2/CI-MPR; IGF2/Mannose-6-phosphate receptor
Protocol: (§1) In the binding assay, a plate was first coated with CI-MPR. Next, a sample containing the enzyme of interest was incubated on the plate. The plate was washed so that only substances bound to CI-MPR remain on the plate. The amount of the enzyme of interest bound to the plate was determined by enzyme assay or by mass spec. The binding assay was performed at a range of concentrations of the enzyme of interest in order to obtain a binding curve.
CI-MPR plate-binding assay performed as previously described, then amount bound was determined by PPT1 activity assay.

[2] = target: T1, CI-MPR receptor; test: CIMPR binding assay, PPT1 conditioned media, curves starting at 25 nM, bound PPT1 activity; the table prints no units, units of the axes
[3] = target: T1, CI-MPR receptor; test: CIMPR binding assay, PPT1 conditioned media, dilution starting at 50 nM, bound PPT1 activity; the table prints no units, units of the axes
[4] = target: T1, CI-MPR receptor; test: CIMPR plate binding assay, bound NAGLU activity (4MU released)
[5] = target: T1, CI-MPR receptor; test: CI-MPR-coated plate binding assay, conditioned media of HEK 293 cells, bound TPP1 activity
Protocol: as §1

Bmax [1] | Relative Kd [1] | Binder | also measured
9.19 | 0.143 | PPT1-33 (wt-PPT1-vIGF2-8Q) (enzyme, Whole entry; it includes the native PPT1 signal peptide) DPPAPLPLVIWHGMGDSCCNPLSMGAIKKMVEKKIPGIYVLSLEIGKTLMEDVENSFFLNVNSQVTTVCQALAKDPKLQQGYNAMGFSQGGQFLRAVAQRCPSPPMINLISVGGQHQGVFGLPRCPGESSHICDFIRKTLNAGAYSKVVQERLVQAEYWHDPIKEDVYRNHSIFLADINQERGINESYKKNLMALKKFVMVKFLNDSIVDPVDSEWFGFYRSGQAKETIPLQETSLYTQDRLGLKEMDNAGQLVFLATEGDHLQLSEEWFYAHIIPFLGRPRAVPTQGGSGSGSTSSSRTLCGGELVDTLQFVCGDRGFLFSRPASRVSRRSRGIVEECCFRECDLALLETYCATPARSE | 
 |  | PPT1-104 (enzyme) fusion protein: DPPAPLPLVIWHGMGDSCCNPLSMGAIKKMVEKKIPGIYVLSLEIGKTLMEDVENSFFLNVNSQVTTVCQALAKDPKLQQGYNAMGFSQGGQFLRAVAQRCPSPPMINLISVGGQHQGVFGLPRCPGESSHICDFIRKTLNAGAYSKVVQERLVQAEYWHDPIKEDVYRNHSIFLADINQERGINESYKKNLMALKKFVMVKFLNDSIVDPVDSEWFGFYRSGQAKETIPLQETSLYTQDRLGLKEMDNAGQLVFLATEGDHLQLSEEWFYAHIIPFLGRPRAVPTQGGSGSGSTSSSRTLCGGELVDTLQFVCGDRGFLFSRGGGGSRGILEECCFRECDLALLETYCATPARSE | Kd [2]: 3.87 nM; Kd [3]: 3.41 nM
6.05 | 0.121 | PPT1-32 (wt-PPT1-vIGF2-32) (enzyme, Whole entry; it includes the native PPT1 signal peptide) DPPAPLPLVIWHGMGDSCCNPLSMGAIKKMVEKKIPGIYVLSLEIGKTLMEDVENSFFLNVNSQVTTVCQALAKDPKLQQGYNAMGFSQGGQFLRAVAQRCPSPPMINLISVGGQHQGVFGLPRCPGESSHICDFIRKTLNAGAYSKVVQERLVQAEYWHDPIKEDVYRNHSIFLADINQERGINESYKKNLMALKKFVMVKFLNDSIVDPVDSEWFGFYRSGQAKETIPLQETSLYTQDRLGLKEMDNAGQLVFLATEGDHLQLSEEWFYAHIIPFLGRPRAVPTQGGSGSGSTSSSRTLCGGELVDTLQFVCGDRGFLFSRGGGGSRGILEECCFRECDLALLETYCATPARSE | 
 |  | WT NAGLU (enzyme, also called untagged NAGLU) enzyme: DEAREAAAVRALVARLLGPGPAADFSVSVERALAAKPGLDTYSLGGGGAARVRVRGSTGVAAAAGLHRYLRDFCGCHVAWSGSQLRLPRPLPAVPGELTEATPNRYRYYQNVCTQSYSFVWWDWARWEREIDWMALNGINLALAWSGQEAIWQRVYLALGLTQAEINEFFTGPAFLAWGRMGNLHTWDGPLPPSWHIKQLYLQHRVLDQMRSFGMTPVLPAFAGHVPEAVTRVFPQVNVTKMGSWGHFNCSYSCSFLLAPEDPIFPIIGSLFLRELIKEFGTDHIYGADTFNEMQPPSSEPSYLAAATTAVYEAMTAVDTEAVWLLQGWLFQHQPQFWGPAQIRAVLGAVPRGRLLVLDLFAESQPVYTRTASFQGQPFIWCMLHNFGGNHGLFGALEAVNGGPEAARLFPNSTMVGTGMAPEGISQNEVVYSLMAELGWRKDPVPDLAAWVTSFAARRYGVSHPDAGAAWRLLLRSVYNCSGEACRGHNRSPLVRRPSLQMNTSIWYNRSDVFEAWRLLLTSAPSLATSPAFRYDLLDLTRQAVQELVSLYYEEARSAYLSKELASLLRAGGVLAYELLPALDEVLASDSRFLLGSWLEQARAAAVSEAEADFYEQNSRYQLTLWGPEGNILDYANKQLAGLVANYYTPRWRLFLEALVDSVAQGIPFQQHQFDKNVFQLEQAFVLSKQRYPSQPRGDTVDLAKKIFLKYYPRWVAGSW | Kd [4]: 325 nM
8.98 | 0.107 | PPT1-29 (BiP2aa-vIGF2-PPT1) (enzyme, Whole entry; it includes the modified BiP signal peptide) MKLSLVAAMLLLLWVALLLLSAARAAASRTLCGGELVDTLQFVCGDRGFLFSRPASRVSRRSRGIVEECCFRSCDLALLETYCATPARSEGGGGSGGGGSRPRAVPTQDPPAPLPLVIWHGMGDSCCNPLSMGAIKKMVEKKIPGIYVLSLEIGKTLMEDVENSFFLNVNSQVTTVCQALAKDPKLQQGYNAMGFSQGGQFLRAVAQRCPSPPMINLISVGGQHQGVFGLPRCPGESSHICDFIRKTLNAGAYSKVVQERLVQAEYWHDPIKEDVYRNHSIFLADINQERGINESYKKNLMALKKFVMVKFLNDSIVDPVDSEWFGFYRSGQAKETIPLQETSLYTQDRLGLKEMDNAGQLVFLATEGDHLQLSEEWFYAHIIPFLG | 
 |  | Natural hTTP1 (enzyme, also called WT TPP1; TPP1 wildtype) enzyme: SYSPEPDQRRTLPPGWVSLGRADPEEELSLTFALRQQNVERLSELVQAVSDPSSPQYGKYLTLENVADLVRPSPLTLHTVQKWLLAAGAQKCHSVITQDFLTCWLSIRQAELLLPGAEFHHYVGGPTETHVVRSPHPYQLPQALAPHVDFVGGLHRFPPTSSLRQRPEPQVTGTVGLHLGVTPSVIRKRYNLTSQDVGSGTSNNSQACAQFLEQYFHDSDLAQFMRLFGGNFAHQASVARVVGQQGRGRAGIEASLDVQYLMSAGANISTWVYSSPGRHEGQEPFLQWLMLLSNESALPHVHTVSYGDDEDSLSSAYIQRVNTELMKAAARGLTLLFASGDSGAGCWSVSGRHQFRPTFPASSPYVTTVGGTSFQEPFLITNEIVDYISGGGFSNVFPRPSYQEEAVTKFLSSSPHLPPSSYFNASGRAYPDVAALSDGYWVVSNRVPIPWVSGTSASTPVFGGILSLINEHRILSGRPPLGFLNPRLYQQHGAGLFDVTRGCHESCLDEEVEGQGFCSGPGWDPVTGWGTPNFPALLKTLLNP | EC50 (read off the curve) [5]: ~0.4 nM
 |  | PPT1-101 (enzyme) fusion protein: MKLSLVAAMLLLLWVALLLLSAARAAASRTLCGGELVDTLQFVCGDRGFLFSRGGGGSRGILEECCFRDCDLALLETYCATPARSEGGGGSGGGGSRPRAVPTQDPPAPLPLVIWHGMGDSCCNPLSMGAIKKMVEKKIPGIYVLSLEIGKTLMEDVENSFFLNVNSQVTTVCQALAKDPKLQQGYNAMGFSQGGQFLRAVAQRCPSPPMINLISVGGQHQGVFGLPRCPGESSHICDFIRKTLNAGAYSKVVQERLVQAEYWHDPIKEDVYRNHSIFLADINQERGINESYKKNLMALKKFVMVKFLNDSIVDPVDSEWFGFYRSGQAKETIPLQETSLYTQDRLGLKEMDNAGQLVFLATEGDHLQLSEEWFYAHIIPFLG | Kd [2]: 4.57 nM; Kd [3]: 4.12 nM

— patent US20240091321A1 (AMICUS THERAPEUTICS, published 2024)
